# Assay results from article PMC10397247.
# What was measured:
# Test in all cases: two-hybrid library CCNG1;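 also: natural log of median RNA to DNA barcode read ratio; higher means stronger binding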
# [1] = target: T1, 4H953-bA
# T1 chain: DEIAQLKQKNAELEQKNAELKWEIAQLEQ
# [2] = target: T2, 4H2586-bA
# T2 chain: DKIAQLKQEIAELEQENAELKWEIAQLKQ
# [3] = target: T3, 4H1831-bA
# T3 chain: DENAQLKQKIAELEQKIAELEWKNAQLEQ
# [4] = target: T4, 4H118-bA
# T4 chain: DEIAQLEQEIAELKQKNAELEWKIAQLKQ
# [5] = target: T5, 4H3112-bA
# T5 chain: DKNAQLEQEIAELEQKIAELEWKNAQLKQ
# [6] = target: T6, 4H575-bA
# T6 chain: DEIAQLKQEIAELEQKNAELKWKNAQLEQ
# [7] = target: T7, 4H855-bA
# T7 chain: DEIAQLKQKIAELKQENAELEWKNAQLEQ
# [8] = target: T8, 4H683-bA
# T8 chain: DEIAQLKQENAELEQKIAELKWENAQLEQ
# [9] = target: T9, 4H170-bA
# T9 chain: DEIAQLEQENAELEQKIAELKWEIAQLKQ
# [10] = target: T10, 4H2673-bA
# T10 chain: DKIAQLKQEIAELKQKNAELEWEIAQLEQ
# [11] = target: T11, 4H968-bA
# T11 chain: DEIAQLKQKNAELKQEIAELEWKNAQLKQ
# [12] = target: T12, 4H780-bA
# T12 chain: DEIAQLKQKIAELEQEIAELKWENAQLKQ
# [13] = target: T13, 4H4073-bA
# T13 chain: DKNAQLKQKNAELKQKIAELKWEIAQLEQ
# [14] = target: T14, 4H2702-bA
# T14 chain: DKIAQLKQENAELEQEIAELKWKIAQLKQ
# [15] = target: T15, 4H3427-bA
# T15 chain: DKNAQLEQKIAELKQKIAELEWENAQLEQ
# [16] = target: T16, 4H754-bA
# T16 chain: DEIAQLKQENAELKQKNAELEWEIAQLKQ
# [17] = target: T17, 4H457-bA
# T17 chain: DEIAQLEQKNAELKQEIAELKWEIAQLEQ
# [18] = target: T18, 4H797-bA
# T18 chain: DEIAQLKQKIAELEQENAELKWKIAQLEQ
# [19] = target: T19, 4H2627-bA
# T19 chain: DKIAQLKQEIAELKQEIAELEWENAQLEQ
# [20] = target: T20, O3-bP
# T20 chain: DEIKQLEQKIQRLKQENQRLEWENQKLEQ
# [21] = target: T21, 4H346-bA
# T21 chain: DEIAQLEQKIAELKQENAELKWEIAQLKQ
# [22] = target: T22, 4H918-bA
# T22 chain: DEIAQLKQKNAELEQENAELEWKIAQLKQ
# [23] = target: T23, 4H3010-bA
# T23 chain: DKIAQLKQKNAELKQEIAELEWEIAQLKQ
# [24] = target: T24, 4H3926-bA
# T24 chain: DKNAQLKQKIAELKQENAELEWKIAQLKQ
# [25] = target: T25, 4H3907-bH
# T25 chain: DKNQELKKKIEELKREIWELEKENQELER
# [26] = target: T26, 4H3070-bH
# T26 chain: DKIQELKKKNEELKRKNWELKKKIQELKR
# [27] = target: T27, 4H3961-bH
# T27 chain: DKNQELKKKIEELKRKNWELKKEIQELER
# [28] = target: T28, 4H342-bH
# T28 chain: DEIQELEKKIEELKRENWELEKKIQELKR
# [29] = target: T29, 4H2691-bH
# T29 chain: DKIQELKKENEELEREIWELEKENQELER
# [30] = target: T30, 4H2745-bH
# T30 chain: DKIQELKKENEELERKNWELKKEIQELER
# [31] = target: T31, 4H470-bH
# T31 chain: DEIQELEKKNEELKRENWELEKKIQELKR
# [32] = target: T32, 4H363-bH
# T32 chain: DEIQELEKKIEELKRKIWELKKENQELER
# [33] = target: T33, 4H496-bH
# T33 chain: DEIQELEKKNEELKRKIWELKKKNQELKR
# [34] = target: T34, 4H3632-bH
# T34 chain: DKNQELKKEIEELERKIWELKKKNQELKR
# [35] = target: T35, 4H344-bH
# T35 chain: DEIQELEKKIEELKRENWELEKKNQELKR
# [36] = target: T36, 4H2619-bH
# T36 chain: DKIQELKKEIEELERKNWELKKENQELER
# [37] = target: T37, 4H2717-bA
# T37 chain: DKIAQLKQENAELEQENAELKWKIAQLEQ
binder,measurement,setting,value
DEIAQLEQEIAELKQKNAELEWKIAQLKQ [4H118-bA],interaction score,[1],-0.791
same,interaction score,[2],0.381
same,interaction score,[3],-0.644
same,interaction score,[4],1.64
same,interaction score,[5],0.131
same,interaction score,[6],0.369
same,interaction score,[7],0.403
same,interaction score,[8],-0.721
same,interaction score,[9],-0.0431
same,interaction score,[10],1.32
same,interaction score,[11],0.0453
same,interaction score,[12],0.087
same,interaction score,[13],-0.156
same,interaction score,[14],0.439
same,interaction score,[15],0.236
same,interaction score,[16],-1.04
same,interaction score,[17],-0.384
same,interaction score,[18],-1.22
same,interaction score,[19],0.852
same,interaction score,[20],-1.86
same,interaction score,[21],-0.612
same,interaction score,[22],-0.49
same,interaction score,[23],2.66
same,interaction score,[24],1.96
DKIQELKKEIEELERKNWELKKENQELER [4H2619-bH],interaction score,[25],0.518
same,interaction score,[26],-0.416
same,interaction score,[27],-0.9
same,interaction score,[28],1.45
same,interaction score,[29],0.304
same,interaction score,[30],0.382
same,interaction score,[31],0.724
same,interaction score,[32],0.722
same,interaction score,[33],-0.548
same,interaction score,[34],-0.755
same,interaction score,[35],1.68
same,interaction score,[36],0.248
same,interaction score,[37],-0.495
DKIQELKKENEELEREIWELEKENQELER [4H2691-bH],interaction score,[26],0.576
same,interaction score,[28],-1.06
same,interaction score,[29],-0.0571
same,interaction score,[33],1.3
same,interaction score,[34],-1.39
